Results reported in US20250237662A1.

Experiments:
[1] = molecular target: humanized development candidate monoclonal antibody IgG4 (hIgG4); assay: direct ELISA, hIgG4 coated, B-cell culture medium
[2] = molecular target: humanized development candidate monoclonal antibody IgG4 (hIgG4); assay: Gyrolab, mAb as capture, hIgG4 8 ng/ml
[3] = molecular target: humanized therapeutic monoclonal antibody IgG1 (hIgG1); assay: direct ELISA, hIgG1 coated, B-cell culture medium
[4] = molecular target: humanized development candidate monoclonal antibody IgG4 (hIgG4); assay: Gyrolab, mAb as capture, hIgG4 0.32 ng/ml, against the blank
[5] = molecular target: humanized development candidate monoclonal antibody IgG4 (hIgG4); assay: Gyrolab, mAb as capture, hIgG4 200 ng/ml
[6] = molecular target: humanized development candidate monoclonal antibody IgG4 (hIgG4); assay: Gyrolab, mAb as capture, hIgG4 5000 ng/ml, against the blank
[7] = molecular target: humanized development candidate monoclonal antibody IgG4 (hIgG4); assay: Gyrolab, mAb as capture, hIgG4 5000 ng/ml
[8] = molecular target: humanized development candidate monoclonal antibody IgG4 (hIgG4); assay: Gyrolab, mAb as capture, hIgG4 8 ng/ml, against the blank
[9] = molecular target: humanized development candidate monoclonal antibody IgG4 (hIgG4); assay: Gyrolab, mAb as capture, hIgG4 40 ng/ml, against the blank
[10] = molecular target: humanized development candidate monoclonal antibody IgG4 (hIgG4); assay: Gyrolab, mAb as capture, hIgG4 1000 ng/ml, against the blank
[11] = molecular target: humanized development candidate monoclonal antibody IgG4 (hIgG4); assay: Gyrolab, mAb as capture, hIgG4 200 ng/ml, against the blank
[12] = molecular target: humanized development candidate monoclonal antibody IgG4 (hIgG4); assay: ELISA, medium of transfected HEK293F; signal on hIgG4 over signal on cynoIgG
[13] = molecular target: humanized development candidate monoclonal antibody IgG4 (hIgG4); assay: Gyrolab, mAb as capture, hIgG4 0.32 ng/ml
[14] = molecular target: humanized development candidate monoclonal antibody IgG4 (hIgG4); assay: Gyrolab, mAb as capture, hIgG4 1.6 ng/ml, against the blank
[15] = molecular target: humanized development candidate monoclonal antibody IgG4 (hIgG4); assay: Gyrolab, mAb as capture, hIgG4 1.6 ng/ml
[16] = molecular target: humanized development candidate monoclonal antibody IgG4 (hIgG4); assay: Gyrolab, mAb as capture, hIgG4 40 ng/ml
[17] = molecular target: humanized therapeutic monoclonal antibody IgG1 (hIgG1); assay: SPR (Biacore T200), mAb captured by anti-rabbit mAb on CM5, antigen 80-0 nM, 1:1 fit
[18] = molecular target: humanized development candidate monoclonal antibody IgG4 (hIgG4); assay: as above
[19] = molecular target: internal research reagent human Fab (hFab); assay: as above
[20] = molecular target: cynomolgus monkey IgG (cynoIgG); assay: direct ELISA, cynoIgG coated (hIgG4/CynoIgG screen), B-cell culture medium
[21] = molecular target: humanized therapeutic monoclonal antibody IgG1 (hIgG1); assay: ELISA, medium of transfected HEK293F; signal on hIgG1 over signal on cynoIgG
[22] = molecular target: humanized development candidate monoclonal antibody IgG4 (hIgG4); assay: Gyrolab, mAb as capture, hIgG4 1000 ng/ml
[23] = molecular target: humanized development candidate monoclonal antibody IgG4 (hIgG4); assay: Gyrolab immunoassay quality control, biotinylated 16F5 as capture, hIgG4 in matrix with 4% cynomolgus monkey serum, Alexa Fluor 647 goat anti-human IgG detection
[24] = molecular target: cynomolgus monkey IgG (cynoIgG); assay: direct ELISA, cynoIgG coated (hIgG1/CynoIgG screen), B-cell culture medium
[25] = molecular target: drug: a monoclonal antibody of human IgG4 isotype (PandA assay); assay: PandA assay, signal to noise against the negative control
[26] = molecular target: drug: a monoclonal antibody of human IgG4 isotype (PandA assay); assay: PandA assay, mAb 0.75 ug/ml in monkey plasma
[27] = molecular target: drug: a monoclonal antibody of human IgG4 isotype (PandA assay); assay: PandA assay, monkey matrix, mAb 0.5 ug/ml
[28] = molecular target: drug: a monoclonal antibody of human IgG4 isotype (PandA assay); assay: PandA assay (PEG precipitation, acid dissociation, MSD plate, sulfo-TAG-drug), mAb 5 ug/ml in monkey plasma
[29] = molecular target: drug: a monoclonal antibody of human IgG4 isotype (PandA assay); assay: PandA assay, mAb 0.5 ug/ml in monkey plasma
[30] = molecular target: drug: a monoclonal antibody of human IgG4 isotype (PandA assay); assay: PandA assay, monkey matrix, mAb 1 ug/ml
[31] = molecular target: drug: a monoclonal antibody of human IgG4 isotype (PandA assay); assay: PandA assay, monkey matrix, mAb 5 ug/ml
[32] = molecular target: drug: a monoclonal antibody of human IgG4 isotype (PandA assay); assay: PandA assay, mAb 1 ug/ml in monkey plasma
[33] = molecular target: drug: a monoclonal antibody of human IgG4 isotype (PandA assay); assay: PandA assay, monkey matrix, mAb 0.75 ug/ml

B1: rabbit anti-human IgG monoclonal antibody clone 16F5 (antibody, V domains shown)
VH: QQQLEESGGGLVKPGGTLTLTCKASGIDFSNYYYMCWVRQAPGKGLELIACIYTGSSGSTWYATWAKGRFTISKTSSTTVTLQMTSLTAADTATYFCARDRDVGSLYDSLDLWGQGTLVTVSP
VL: AYDMTQTPASVEAAVGGTVTINCQASQSINNWLSWYQQKPGQRPKLLIYQASTLASGVSSRFKGSGSGTHFTLTISDLECADAATYYCQQGWSIDDIDNAFGGGTEVVVKG
OD450 [1]: 1.37 OD450 | Av. Resp. [2]: 18.5 | OD450 [3]: 1.39 OD450 | S/B [4]: 1.1 | Av. Resp. [5]: 197 | S/B [6]: 98.6 | Av. Resp. [7]: 385 | S/B [8]: 4.7 | S/B [9]: 16.4 | S/B [10]: 94.4 | S/B [11]: 50.5 | ELISA signal ratio hIgG4/CynoIgG [12]: 6.33 | Av. Resp. [13]: 4.4 | S/B [14]: 1.8 | Av. Resp. [15]: 7 | Av. Resp. [16]: 64.2 | Kd [17]: 127 pM | koff [17]: 2.21e-05 s⁻¹ | kon [17]: 173000 M⁻¹ s⁻¹ | Kd [18]: 514 pM | koff [18]: 8.09e-05 s⁻¹ | kon [18]: 157000 M⁻¹ s⁻¹ | Kd [19]: 1930 pM | koff [19]: 0.00584 s⁻¹ | kon [19]: 3.02e+06 M⁻¹ s⁻¹ | OD450 [20]: 0.154 OD450 | ELISA signal ratio hIgG1/CynoIgG [21]: 5.9 | Av. Resp. [22]: 369 | Average Response (HQC, expected conc 750 ng/mL) [23]: 414 | Average Response (LQC, expected conc 40.0 ng/mL) [23]: 70.3 | Average Response (MQC, expected conc 0.600 ng/mL) [23]: 5.85 | Response (HQC, expected conc 750 ng/mL, CD struct C1) [23]: 400 | Response (HQC, expected conc 750 ng/mL, CD struct C2) [23]: 427 | Response (LQC, expected conc 40.0 ng/mL, CD struct C3) [23]: 68.6 | Response (LQC, expected conc 40.0 ng/mL, CD struct C4) [23]: 72 | Response (MQC, expected conc 0.600 ng/mL, CD struct C5) [23]: 5.88 | Response (MQC, expected conc 0.600 ng/mL, CD struct C6) [23]: 5.83 | S/B (HQC, expected conc 750 ng/mL, CD struct C1) [23]: 87.7 | S/B (HQC, expected conc 750 ng/mL, CD struct C2) [23]: 93.6 | S/B (LQC, expected conc 40.0 ng/mL, CD struct C3) [23]: 15 | S/B (LQC, expected conc 40.0 ng/mL, CD struct C4) [23]: 15.8 | S/B (MQC, expected conc 0.600 ng/mL, CD struct C5) [23]: 1.29 | S/B (MQC, expected conc 0.600 ng/mL, CD struct C6) [23]: 1.28 | OD450 [24]: 0.184 OD450

B2: rabbit anti-human IgG monoclonal antibody clone 11G5 (antibody, V domains shown)
VH: QSLEESGGDLVKPGASLTLTCTASGFSFSSSYYMCWVRQAPGKRLEWIACIYGGGLSNTYYAGWAKGRFTISKTSSTTVTLQMTSLTAADTATYFCARDATSGDYLNLWGPGTLVTVSS
VL: AVVMTQTASPVSGAVGGTVTINCQASQSISASALSWYQQKPGQPPKLLIYAASTLESGVPSRFKGSGSGTQFTLTISGVQCDDAATYYCAYDGYRLSSADNIFGGGTEVVVKG
OD450 [1]: 1.32 OD450 | Av. Resp. [2]: 20.3 | OD450 [3]: 1.25 OD450 | S/B [4]: 1 | S/N [25]: 1.8 | Av. Resp. [5]: 184 | S/B [6]: 63.3 | ECL Signal [26]: 257 | Av. Resp. [7]: 468 | S/B [8]: 2.7 | S/B [9]: 8.2 | S/N (monkey) [27]: 1.58 | S/B [10]: 53.1 | S/B [11]: 24.8 | ELISA signal ratio hIgG4/CynoIgG [12]: 5.19 | ECL Signal [28]: 1550 | ECL Signal [29]: 171 | Av. Resp. [13]: 7.5 | S/B [14]: 1.3 | Av. Resp. [15]: 9.8 | Av. Resp. [16]: 60.9 | Kd [17]: 187 pM | koff [17]: 2.52e-05 s⁻¹ | kon [17]: 135000 M⁻¹ s⁻¹ | Kd [18]: 42.9 pM | koff [18]: 5.8e-06 s⁻¹ | kon [18]: 135000 M⁻¹ s⁻¹ | Kd [19]: 591 pM | koff [19]: 0.000531 s⁻¹ | kon [19]: 899000 M⁻¹ s⁻¹ | OD450 [20]: 0.159 OD450 | S/N (monkey) [30]: 2.4 | S/N (monkey) [31]: 9.76 | ELISA signal ratio hIgG1/CynoIgG [21]: 4.94 | ECL Signal [32]: 320 | Av. Resp. [22]: 394 | OD450 [24]: 0.161 OD450 | S/N (monkey) [33]: 1.92

B3: rabbit anti-human IgG monoclonal antibody clone 9E6 (antibody, V domains shown)
VH: QSLEESGGDLVKPGASLTLTCKASGFDFSSSYYMCWVRQAPGRLEWIACIYGGGLSNTYYAGWAKGRFTISKTSSTTVTLQMTSLTVADTATYFCARDAGTSGDYLNLWGPGTLVTVSS
VL: AVVMTQTASPVSGAVGGTVTINCQASQSISSSYLSWYQQKPGQPPKLLIYGASTLASGVPSRFKGSGSGTQFTLTISGVQCDDAATYYCAYDAYRLSSPDNIFGGGTEVVVKG
OD450 [1]: 1.28 OD450 | Av. Resp. [2]: 8.6 | OD450 [3]: 1.28 OD450 | S/B [4]: 1.1 | Av. Resp. [5]: 103 | S/B [6]: 113 | Av. Resp. [7]: 327 | S/B [8]: 3 | S/B [9]: 9.8 | S/B [10]: 88.2 | S/B [11]: 35.5 | ELISA signal ratio hIgG4/CynoIgG [12]: 9.53 | Av. Resp. [13]: 3 | S/B [14]: 1.4 | Av. Resp. [15]: 4.1 | Av. Resp. [16]: 28.4 | Kd [17]: 426 pM | koff [17]: 6.1e-05 s⁻¹ | kon [17]: 143000 M⁻¹ s⁻¹ | Kd [18]: 196 pM | koff [18]: 2.68e-05 s⁻¹ | kon [18]: 137000 M⁻¹ s⁻¹ | Kd [19]: 518 pM | koff [19]: 0.00603 s⁻¹ | kon [19]: 1.16e+07 M⁻¹ s⁻¹ | OD450 [20]: 0.146 OD450 | ELISA signal ratio hIgG1/CynoIgG [21]: 10.2 | Av. Resp. [22]: 256 | OD450 [24]: 0.14 OD450
